# Data as given in patent US20240361316A1 (ORASURE TECHNOLOGIES, published 2024).
# B1: recombinant biotinylated human angiotensin-converting enzyme 2 (ACE2-biotin), construct hACE-GS-6xHIS (receptor)
# chain: STIEEQAKTFLDKFNHEAEDLFYQSSLASWNYNTNITEENVQNMNNAGDKWSAFLKEQSTLAQMYPLQEIQNLTVKLQLQALQQNGSSVLSEDKSKRLNTILNTMSTIYSTGKVCNPDNPQECLLLEPGLNEIMANSLDYNERLWAWESWRSEVGKQLRPLYEEYVVLKNEMARANHYEDYGDYWRGDYEVNGVDGYDYSRGQLIEDVEHTFEEIKPLYEHLHAYVRAKLMNAYPSYISPIGCLPAHLLGDMWGRFWTNLYSLTVPFGQKPNIDVTDAMVDQAWDAQRIFKEAEKFFVSVGLPNMTQGFWENSMLTDPGNVQKAVCHPTAWDLGKGDFRILMCTKVTMDDFLTAHHEMGHIQYDMAYAAQPFLLRNGANEGFHEAVGEIMSLSAATPKHLKSIGLLSPDFQEDNETEINFLLKQALTIVGTLPFTYMLEKWRWMVFKGEIPKDQWMKKWWEMKREIVGVVEPVPHDETYCDPASLFHVSNDYSFIRYYTRTLYQFQFQEALCQAAKHEGPLHKCDISNSTEAGQKLFNMLRLGKSEPWTLALENVVGAKNMNVRPLLNYFEPLFTWLKDQNKNSFVGWSTDGGGGSGGGGSHHHHHHH
# modifications: biotinylated, 1-10 biotins per ACE2 [mole:mole]; positions not given
# Biological target: recombinant SARS-CoV-2 Spike 1 subunit (S1), Alpha S1 construct 1 (SARS-CoV-2 (WHO Alpha (WT) variant, …, UniProt P0DTC2 14-674))
binder,measurement,value
B1,EC50,0.5 nM
